Measurements published in PMC6282205.

Biological target: Neisseria meningitidis Cas9 (NmeCas9, from strain 8013), 6×His-tagged (Neisseria meningitidis (strain 8013)) (UniProt C9X1G5)
Sequence of UniProt C9X1G5 (C9X1G5 whole entry): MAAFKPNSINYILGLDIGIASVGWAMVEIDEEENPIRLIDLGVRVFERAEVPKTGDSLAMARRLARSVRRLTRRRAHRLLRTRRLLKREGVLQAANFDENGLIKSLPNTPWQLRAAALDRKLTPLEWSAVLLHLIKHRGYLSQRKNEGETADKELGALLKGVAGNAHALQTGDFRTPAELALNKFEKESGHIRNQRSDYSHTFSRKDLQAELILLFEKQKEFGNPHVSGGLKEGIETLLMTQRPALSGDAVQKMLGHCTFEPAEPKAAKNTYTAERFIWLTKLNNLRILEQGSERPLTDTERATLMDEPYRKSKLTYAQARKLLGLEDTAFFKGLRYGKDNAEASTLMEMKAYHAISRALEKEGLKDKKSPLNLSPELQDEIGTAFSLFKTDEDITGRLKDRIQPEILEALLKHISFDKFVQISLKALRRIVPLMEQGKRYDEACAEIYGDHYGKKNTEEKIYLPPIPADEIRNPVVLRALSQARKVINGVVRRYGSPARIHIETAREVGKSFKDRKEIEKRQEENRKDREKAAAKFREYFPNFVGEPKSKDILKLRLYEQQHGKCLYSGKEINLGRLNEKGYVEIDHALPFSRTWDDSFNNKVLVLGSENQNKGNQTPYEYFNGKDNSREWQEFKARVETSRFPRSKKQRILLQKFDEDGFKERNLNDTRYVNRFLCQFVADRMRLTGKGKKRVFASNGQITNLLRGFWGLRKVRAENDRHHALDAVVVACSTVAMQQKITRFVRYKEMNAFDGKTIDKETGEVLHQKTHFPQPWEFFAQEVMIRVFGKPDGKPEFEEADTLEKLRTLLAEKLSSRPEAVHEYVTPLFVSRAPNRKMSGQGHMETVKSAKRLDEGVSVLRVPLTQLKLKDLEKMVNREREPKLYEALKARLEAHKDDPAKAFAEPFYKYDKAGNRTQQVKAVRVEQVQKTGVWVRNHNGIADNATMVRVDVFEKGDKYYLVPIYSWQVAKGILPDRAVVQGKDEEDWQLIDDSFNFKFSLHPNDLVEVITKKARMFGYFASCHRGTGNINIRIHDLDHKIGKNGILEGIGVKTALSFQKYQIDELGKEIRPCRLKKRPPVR

Substance: AcrIIC5Smu, untagged (natural protein)
- in vitro cleavage of linearized target plasmid by NmeCas9-sgRNA; molar excess of Acr over Cas9 at complete inhibition (fold molar excess of Acr): 7
